Measurements as given in PMC4352398.

Legend:
[1] = target: constitutively active Flag-Rab4 variant (Drosophila); assay: co-IP
[2] = target: dominant negative Flag-Rab4 variant (Drosophila); assay: co-IP

B1: Myc-RhoGAP68F (natural protein)
chain: MDAHSRFAPRLPGPAINPIVDNSDEPQPSLSDLHDFEPKLEFDDTELLAPSPLEKDVMVGDFVLAEDPELEPEEDVNPLEDDFEDQLREQSENFQTPRNKCDFLGTDKQGRHIFGIYASRFPEKSQLEGFVREIIKEIEPFVENDYILVYFHQGLKEDNKPSAQFLWNSYKELDRNFRKNLKTLYVVHPTWFIRVIWNFFSPFISDKFRKKLVYISSLDELRQALGLNKLKLPDNICDLDDKLNPSRKPSTPPPSSNINASRQQQHKMATTHQFGVPLKFIVMNSPCLNSIPPIVRKCVDSLSITGVIDTEGIFRRSGNHSEIMALKERVNRGEDVDLKSVNVHVIAGLLKSFLRDLAEPLLTFELYEDVTGFLDWPKEERSRNVTQLIREKLPEENYELFKYIVEFLVRVMDCEDLNKMTSSNLAIVFGPNFLWSRSTSTSLEEIAPINAFVDFVLQNHKDIYLIDVNQRTVSVD
[1]
  fold stronger association than with wild type Flag-Rab4: 3.26 fold
[2]
  fold weaker association than with wild type Flag-Rab4: 2.88 fold
